Reference: the RNAGym collection of RNA variant scans (doi:10.1101/gr.219683.116)

B1: mRNA-splicing (parent)
chain: AGUUGCUGCUGGGAGCUCCAGCACAGUGAAAUGGACAGAAGGGCAGAGCAA

Variants of: B1
Experiment: exon inclusion enrichment index; higher = more inclusion; WT1 exon 5 minigene, HEK293

Question: Which “exon inclusion enrichment index” value does the source give for G5C C6A U7C G8U C9U U10A here?
Answer: 0.0134

Question: With G5C C6A U7C G8A U10A U17A C18A as the variant, how does the “exon inclusion enrichment index” value read?
Answer: 0.043

Question: Which “exon inclusion enrichment index” value does the source give for G5C C6A U7C G8A U10A U17A C18U here?
Answer: 0.0447

Question: For G5C C6A U7C G8A U10A U17A C18G, which “exon inclusion enrichment index” value is on record?
Answer: 0.0895

Question: With G5C C6A U7C G8A U10A U32G G33C as the variant, how does the “exon inclusion enrichment index” value read?
Answer: 0.0862

Question: For G5C C6A U7C G8A U10A U32G G33A, which “exon inclusion enrichment index” value is on record?
Answer: 0.00787

Question: Which “exon inclusion enrichment index” value does the source give for G5C C6A U7C G8A U10A U32G G33U here?
Answer: 0.009

Question: Which “exon inclusion enrichment index” value does the source give for G5C C6A U7C G8A U10A G38C here?
Answer: 0.0648

Question: For G5C C6A U7C G8A U10A G38A, which “exon inclusion enrichment index” value is on record?
Answer: 0.0452

Question: With G5C C6A U7C G8A U10A G38U as the variant, how does the “exon inclusion enrichment index” value read?
Answer: 0.0342

Question: Which “exon inclusion enrichment index” value does the source give for G5C C6A U7C G8A U10A G43A C44A here?
Answer: 0.532

Question: Which “exon inclusion enrichment index” value does the source give for G5C C6A U7C G8A U10A G43A C44U here?
Answer: 0.16

Question: With G5C C6A U7C G8A U10A G43A C44G as the variant, how does the “exon inclusion enrichment index” value read?
Answer: 0.71

Question: With G5C C6A U7G U10C as the variant, how does the “exon inclusion enrichment index” value read?
Answer: 0.429

Question: For G5C C6A U7G U10A, which “exon inclusion enrichment index” value is on record?
Answer: 0.0115

Question: For G5C C6A U7C G8A U10A G33U G34A, which “exon inclusion enrichment index” value is on record?
Answer: 0.0098

Question: For G5C C6A U7C G8A U10A G33U G34C, which “exon inclusion enrichment index” value is on record?
Answer: 0.00585

Question: With G5C C6A U7C G8A U10A G33U G34U as the variant, how does the “exon inclusion enrichment index” value read?
Answer: 0.00723

Question: With G5C C6A U7G G8C U10A as the variant, how does the “exon inclusion enrichment index” value read?
Answer: 0.0276

Question: Which “exon inclusion enrichment index” value does the source give for G5C C6A U7C G8A U10A G41A G42C here?
Answer: 0.264

Question: Which “exon inclusion enrichment index” value does the source give for G5C C6A U7C G8A U10A G41A G42A here?
Answer: 0.101

Question: For G5C C6A U7C G8A U10A G41A G42U, which “exon inclusion enrichment index” value is on record?
Answer: 0.105

Question: Which “exon inclusion enrichment index” value does the source give for G5C C6A U7C G8U C9A U10A here?
Answer: 0.0885

Question: Which “exon inclusion enrichment index” value does the source give for G5C C6A U7C G8U C9G U10A here?
Answer: 0.381

Question: Which “exon inclusion enrichment index” value does the source give for G5C C6A U7C G8A U10A G34C A35G here?
Answer: 0.0658

Question: For G5C C6A U7C G8A U10A G34C A35C, which “exon inclusion enrichment index” value is on record?
Answer: 0.0037

Question: Which “exon inclusion enrichment index” value does the source give for G5C C6A U7C G8A U10A G34C A35U here?
Answer: 0.0152

Question: Which “exon inclusion enrichment index” value does the source give for G5C C6A U7C G8A U10A G38C A39U here?
Answer: 0.00505

Question: For G5C C6A U7C G8A U10A G38C A39C, which “exon inclusion enrichment index” value is on record?
Answer: 0.136

Question: Which “exon inclusion enrichment index” value does the source give for G5C C6A U7C G8A U10A G38C A39G here?
Answer: 0.111

Question: Which “exon inclusion enrichment index” value does the source give for G5C C6A U7C G8A U10A G42C G43U here?
Answer: 0.483

Question: Which “exon inclusion enrichment index” value does the source give for G5C C6A U7C G8A U10A G42C G43C here?
Answer: 0.652

Question: For G5C C6A U7C G8A U10A G42C G43A, which “exon inclusion enrichment index” value is on record?
Answer: 0.455

Question: With G5C C6A U7C G8A U10G G11A as the variant, how does the “exon inclusion enrichment index” value read?
Answer: 1.71

Question: For G5C C6A U7C G8A U10G G11C, which “exon inclusion enrichment index” value is on record?
Answer: 2

Question: Which “exon inclusion enrichment index” value does the source give for G5C C6A U7C G8A U10G G11U here?
Answer: 1.69

Question: For G5C C6A U7C G8C C9G U10A, which “exon inclusion enrichment index” value is on record?
Answer: 2.51

Question: For G5C C6A U7C G8C U10A, which “exon inclusion enrichment index” value is on record?
Answer: 0.494

Question: Which “exon inclusion enrichment index” value does the source give for G5C C6A U7C G8A U10A G43U C44A here?
Answer: 0.00933

Question: For G5C C6A U7C G8A U10A G43U C44G, which “exon inclusion enrichment index” value is on record?
Answer: 0.112

Question: For G5C C6A U7C G8A U10A G43U C44U, which “exon inclusion enrichment index” value is on record?
Answer: 0.0172

Question: For G5C C6A U7C G8A U10A U27G, which “exon inclusion enrichment index” value is on record?
Answer: 0.0422

Question: With G5C C6A U7C G8A U10A U27C as the variant, how does the “exon inclusion enrichment index” value read?
Answer: 0.417

Question: With G5C C6A U7C G8A U10A U27A as the variant, how does the “exon inclusion enrichment index” value read?
Answer: 0.151

Question: For G5C C6A U7C G8C C9A U10A, which “exon inclusion enrichment index” value is on record?
Answer: 0.741

Question: Which “exon inclusion enrichment index” value does the source give for G5C C6A U7C G8A U10A U32C G33C here?
Answer: 0.153

Question: For G5C C6A U7C G8A U10A U32C G33U, which “exon inclusion enrichment index” value is on record?
Answer: 0.0717

Question: With G5C C6A U7C G8A U10A U32C G33A as the variant, how does the “exon inclusion enrichment index” value read?
Answer: 0.033

Question: Which “exon inclusion enrichment index” value does the source give for G5C C6A U7C G8A U10A G43U here?
Answer: 0.0948

Question: For G5C C6A U7C G8A U10A G43A, which “exon inclusion enrichment index” value is on record?
Answer: 0.595

Question: With G5C C6A U7C G8A U10A G43C as the variant, how does the “exon inclusion enrichment index” value read?
Answer: 0.238

Question: Which “exon inclusion enrichment index” value does the source give for G5C C6A U7C G8A U10A G42A here?
Answer: 0.428

Question: For G5C C6A U7C G8A U10A G42U, which “exon inclusion enrichment index” value is on record?
Answer: 0.154

Question: Which “exon inclusion enrichment index” value does the source give for G5C C6A U7C G8A U10A G42C here?
Answer: 0.501

Question: With G5C C6A U7C G8A U10A G46A A47G as the variant, how does the “exon inclusion enrichment index” value read?
Answer: 0.0332

Question: Which “exon inclusion enrichment index” value does the source give for G5C C6A U7C G8A U10A G46A A47U here?
Answer: 0.159

Question: For G5C C6A U7C G8A U10A G46A A47C, which “exon inclusion enrichment index” value is on record?
Answer: 0.439

Question: For G5C C6A U7C G8A U10A G48C, which “exon inclusion enrichment index” value is on record?
Answer: 0.213

Question: With G5C C6A U7C G8A U10A G48A as the variant, how does the “exon inclusion enrichment index” value read?
Answer: 0.25

Question: Which “exon inclusion enrichment index” value does the source give for G5C C6A U7C G8A U10A G48U here?
Answer: 0.218

Question: Which “exon inclusion enrichment index” value does the source give for G5C C6A U7C G8A U10A U27C G28C here?
Answer: 0.163

Question: Which “exon inclusion enrichment index” value does the source give for G5C C6A U7C G8A U10A U27C G28U here?
Answer: 0.0768

Question: For G5C C6A U7C G8A U10A U27C G28A, which “exon inclusion enrichment index” value is on record?
Answer: 0.142

Question: Which “exon inclusion enrichment index” value does the source give for G5C C6A U7C G8A U10A G46C A47U here?
Answer: 0.141

Question: Which “exon inclusion enrichment index” value does the source give for G5C C6A U7C G8A U10A G46C A47G here?
Answer: 0.199

Question: With G5C C6A U7C G8A U10A G46C A47C as the variant, how does the “exon inclusion enrichment index” value read?
Answer: 0.209

Question: Which “exon inclusion enrichment index” value does the source give for G5C C6A U7C G8A U10A U32A G33U here?
Answer: 0.0392

Question: For G5C C6A U7C G8A U10A U32A G33C, which “exon inclusion enrichment index” value is on record?
Answer: 0.174

Question: For G5C C6A U7C G8A U10A U32A G33A, which “exon inclusion enrichment index” value is on record?
Answer: 0.0122

Question: With G5C C6A U7G C9A as the variant, how does the “exon inclusion enrichment index” value read?
Answer: 0.352

Question: For G5C C6A U7C G8A U10A G34C, which “exon inclusion enrichment index” value is on record?
Answer: 0.0202

Question: For G5C C6A U7C G8A U10A G34U, which “exon inclusion enrichment index” value is on record?
Answer: 0.012

Question: With G5C C6A U7C G8A U10A G34A as the variant, how does the “exon inclusion enrichment index” value read?
Answer: 0.0333

Question: Which “exon inclusion enrichment index” value does the source give for G5C C6A U7G G8U U10A here?
Answer: 0.00932

Question: Which “exon inclusion enrichment index” value does the source give for G5C C6A U7C G8A U10A G46U here?
Answer: 0.0644

Question: Which “exon inclusion enrichment index” value does the source give for G5C C6A U7C G8A U10A G46A here?
Answer: 0.143

Question: Which “exon inclusion enrichment index” value does the source give for G5C C6A U7C G8A U10A G46C here?
Answer: 0.0718

Question: Which “exon inclusion enrichment index” value does the source give for G5C C6A U7C G8A U10A U17G C18A here?
Answer: 0.109

Question: Which “exon inclusion enrichment index” value does the source give for G5C C6A U7C G8A U10A U17G C18U here?
Answer: 0.0504

Question: Which “exon inclusion enrichment index” value does the source give for G5C C6A U7C G8A U10A U17G C18G here?
Answer: 0.159

Question: For G5C C6A U10A, which “exon inclusion enrichment index” value is on record?
Answer: 0.116

Question: Which “exon inclusion enrichment index” value does the source give for G5C C6A U10C here?
Answer: 1.97

Question: Which “exon inclusion enrichment index” value does the source give for G5C C6A U7C G8A U10A G34U A35G here?
Answer: 0.0186
